{"source": "paper PMC6713349", "about": "“Structural analysis of the recognition of the -35 promoter element by SigW from Bacillus subtilis”", "binders": {"B1": {"name": "-35W (SigW -35 promoter element) (dsDNA)", "DNA 1": "ATTGAAACCTTT", "DNA 2": "AAAAGGTTTCAA"}}, "target": "T1, SigW sigma4 domain (σW4) (Bacillus subtilis 168, UniProt Q45585 126-187)", "T1 sequence": "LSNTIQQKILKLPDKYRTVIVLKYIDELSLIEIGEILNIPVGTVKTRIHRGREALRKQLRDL", "assay": "X-ray crystallography (3.1 Å); 1:1 complex, DNA mixed at 1.1:1; printed Kd 1.47e-8 M is computed from PISA ΔG, not measured, so not taken; Complex dialysed in 20 mM HEPES pH 7.5, 0.2 M NaCl, 5% glycerol; crystals from PEG1500 and isopropanol; temperature not stated", "conditions": "protein: recombinant; tags: N-terminal 6xHis, removed with TEV protease; 5' overhang 1 nt at each end, 11 bp"}
{"binder": "B1", "values": [{"measurement": "binding result", "value": "binds"}]}
